Measured values taken from US20160237156A1 (CALIFORNIA INSTITUTE FOR BIOMEDICAL RESEARCH, published 2016).

T1: Human neutrophil elastase (Elastin Products Company, Inc.) (human, UniProt P08246 30-247, limits assumed)
T1 sequence (looked up): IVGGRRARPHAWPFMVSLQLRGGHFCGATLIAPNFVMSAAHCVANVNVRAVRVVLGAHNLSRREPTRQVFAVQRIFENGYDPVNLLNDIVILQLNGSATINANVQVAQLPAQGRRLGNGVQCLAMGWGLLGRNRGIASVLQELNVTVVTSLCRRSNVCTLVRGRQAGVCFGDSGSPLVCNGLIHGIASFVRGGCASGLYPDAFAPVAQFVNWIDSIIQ


Legend:
[1] = molecular target: T1, Human neutrophil elastase (Elastin …); test: elastase inhibition assay with fluorogenic substrate MeOSuc-AAPV-AMC (Example 28); y axis read as residual activity
CXCR4 = CXCR4 (human, UniProt P61073 1-352); test: cell-based or functional assay
Chain of CXCR4 (P61073 whole entry): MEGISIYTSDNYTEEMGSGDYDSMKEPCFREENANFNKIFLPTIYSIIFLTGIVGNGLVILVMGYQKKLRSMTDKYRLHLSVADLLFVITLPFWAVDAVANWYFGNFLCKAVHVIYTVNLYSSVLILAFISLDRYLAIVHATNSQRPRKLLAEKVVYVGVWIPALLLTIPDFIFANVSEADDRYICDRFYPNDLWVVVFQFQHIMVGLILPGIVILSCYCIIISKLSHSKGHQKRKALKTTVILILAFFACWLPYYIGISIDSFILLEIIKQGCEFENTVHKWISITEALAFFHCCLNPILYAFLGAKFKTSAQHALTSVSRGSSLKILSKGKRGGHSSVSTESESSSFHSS

[2] = molecular target: T2, SNAP-tag-CXCR4 (Tag-lite labeled CXCR4 cells, Cisbio Bioassays) (UniProt P61073 1-352, Tag-lite label on the SNAP-tag); test: Tag-lite HTRF competition with 50 nM fluorescent SDF-1, Cheng-Prusoff
T2 construct: whole, on cells; Bought labelled cells; also called Tag-lite CXCR4 receptor; labeled SNAP-tag-CXCR4; not shown: SNAP-tag of the bought Tag-lite cells
T2 sequence (P61073 whole entry): as above
Method: (§1) Briefly, 10⁶ Tag-lite labeled CXCR4 cells were thawed at 37° C., centrifuged for 5 min at 1200 g, and re-suspended in 2.7 ml 1×Tag-lite buffer after removal of supernatant.

[3] = molecular target: T2, SNAP-tag-CXCR4 (Tag-lite labeled CXCR4 …); test: Tag-lite HTRF competition with 50 nM fluorescent SDF-1 on Tag-lite labeled CXCR4 cells
Method: as §1

Row | Binder | binding result [1] | IC50 (read off the curve) [1] [nM] | inhibition of SDF-1 induced migration of Ramos cells, EC50 (CXCR4) [nM] | Ki [2] [nM] | IC50 [3] [nM]
1 | Human BVK-beta HEI HC 6 (Fab, V domains shown, also called HEI fusion protein) VH: QVQLQESGPGLVRPSQTLSLTCTVSGFSLTGYGVNWVRQPPGRGLEWIGMIWGDGNTDYNSALKSRVTMLKDTSKNQFSLRLSSVTAADTAVYYCTSVHQEMCTASIPPQCYEWHVDVWGQGLLVTVSS VL: DIQMTQSPSSLSASVGDRVTITCRASGNIHNYLAWYQQKPGKAPKLLIYYTTTLADGVPSRFSGSGSGTDYTFTISSLQPEDIATYYCQHFWSTPRTFGQGTKVEIKR | binds |  |  |  | 
2 | BLV1H12-beta BCCX2 HC 4 IgG (antibody, V domains shown, Peptide grafted into CDRH2; also called bAb-AC4; BVL1H12-beta BCCX2 HC 4) VH: ASGFSLSDKAVGWVRQAPGKALEWLGSIDETKKYQSYRKCRGGRRWCYQKSYTYNYETGYNPGLKSRLSITKDNSKSQVSLSVSSVTTEDSATYYCTSVHQGGGGSWHVDVWGQGLLVTVSS VL: QAVLNQPSSVSGSLGQRVSITCSGSSSNVGNGYVSWYQLIPGSAPRTLIYGDTSRASGVPDRFSGSRSGNTATLTISSLQAEDEADYFCASAEDSSSNAVFGSGTTLTVLG |  |  | 3.2 | 0.92 | 4.16
3 | BLV1H12-beta BCCX2 HC 2 IgG (antibody, V domains shown, Bovine-human chimera with human IgG1 Fc; also called bAb-AC2) VH: QVQLRESGPSLVKPSQTLSLTCTASGFSLSDKAVGWVRQAPGKALEWLGSIDTGGNTGYNPGLKSRLSITKDNSKSQVSLSVSSVTTEDSATYYCTSVHQETKKYQSYRKCRGPRRWCYQKSYTYNYEWHVDVWGQGLLVTVSS VL: QAVLNQPSSVSGSLGQRVSITCSGSSSNVGNGYVSWYQLIPGSAPRTLIYGDTSRASGVPDRFSGSRSGNTATLTISSLQAEDEADYFCASAEDSSSNAVFGSGTTLTVLG |  |  |  | 5.39 | 24.4
4 | trastuzumab-beta BCCX2 HC medium (antibody, human IgG1, kappa, V domains shown, also called HMCX) VH: EVQLVESGGGLVQPGGSLRLSCAASGFNIKDTYIHWVRQAPGKGLEWVARIYPTNGYTRYADSVKGRFTISADTSKNTAYLQMNSLRAEDTAVYYCSRETKKYRKCRGGRRWCYQKYNYEDYWGQGTLVTVSS VL: not shown |  |  |  | 25.1 | 113

The next lines start with the values.

Row | binding result [1] | IC50 (read off the curve) [1] [nM] | inhibition of SDF-1 induced migration of Ramos cells, EC50 (CXCR4) [nM] | Ki [2] [nM] | IC50 [3] [nM] | Binder
5 |  | ~40 |  |  |  | Human BVK-beta HEI HC 9 (Fab, V domains shown, also called HEI fusion protein) VH: QVQLQESGPGLVRPSQTLSLTCTVSGFSLTGYGVNWVRQPPGRGLEWIGMIWGDGNTDYNSALKSRVTMLKDTSKNQFSLRLSSVTAADTAVYYCTSVHQETKKMCTASIPPQCYYNYEWHVDVWGQGLLVTVSS VL: DIQMTQSPSSLSASVGDRVTITCRASGNIHNYLAWYQQKPGKAPKLLIYYTTTLADGVPSRFSGSGSGTDYTFTISSLQPEDIATYYCQHFWSTPRTFGQGTKVEIKR
6 | binds |  |  |  |  | Human BVK-beta HEI HC 8 (Fab, V domains shown, also called HEI fusion protein) VH: QVQLQESGPGLVRPSQTLSLTCTVSGFSLTGYGVNWVRQPPGRGLEWIGMIWGDGNTDYNSALKSRVTMLKDTSKNQFSLRLSSVTAADTAVYYCTSVHQETKMCTASIPPQCYNYEWHVDVWGQGLLVTVSS VL: DIQMTQSPSSLSASVGDRVTITCRASGNIHNYLAWYQQKPGKAPKLLIYYTTTLADGVPSRFSGSGSGTDYTFTISSLQPEDIATYYCQHFWSTPRTFGQGTKVEIKR
7 |  |  |  | 19.8 | 89.3 | BLV1H12-beta BCCX2 HC 3 IgG (antibody, V domains shown, Bovine-human chimera with human IgG1 Fc; also called bAb-AC3) VH: QVQLRESGPSLVKPSQTLSLTCTASGFSLSDKAVGWVRQAPGKALEWLGSIDTGGNTGYNPGLKSRLSITKDNSKSQVSLSVSSVTTEDSATYYCTSVHQETKKYQSYRKCRGGNGRRWCYQKSYTYNYEWHVDVWGQGLLVTVSS VL: QAVLNQPSSVSGSLGQRVSITCSGSSSNVGNGYVSWYQLIPGSAPRTLIYGDTSRASGVPDRFSGSRSGNTATLTISSLQAEDEADYFCASAEDSSSNAVFGSGTTLTVLG
8 |  |  |  | 2.07 | 9.36 | trastuzumab-beta BCCX2 HC long (antibody, human IgG1, kappa, V domains shown, also called HLCX) VH: EVQLVESGGGLVQPGGSLRLSCAASGFNIKDTYIHWVRQAPGKGLEWVARIYPTNGYTRYADSVKGRFTISADTSKNTAYLQMNSLRAEDTAVYYCSRETKKYQSYRKCRGGRRWCYQKSYTYNYEDYWGQGTLVTVSS VL: not shown
